Variants at the floor of the assay were thinned out.
B1: TPR 5TU (parent)
chain: GGAUCUUCUCGAUCUAACAAAAAAGACAAAUCUGCCACAAAGCUUGAGAGCAUCUUCGGAUGCAGAGGCGGCAGCCUUCGGUGGCGCGAUAGCGCCAACGUUCUCAACUAUGACACGCAAAACGCGUGCUCCGUUGAAUGGAGUUUAUCAUG

Variants of: B1
Test: polymerase ribozyme fitness, log enrichment relative to wild type (log ratio); higher = more active; in vitro selection for triplet polymerase activity
Outline: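 A heterodimeric triplet polymerase ribozyme had each of its subunits mutagenized by PCR into a library, which was transcribed. One round of in vitro selection, done in triplicate, annealed each library with a biotinylated primer, its partner subunit and triplets, then incubated it frozen at −7 °C before gel excision of extended constructs, streptavidin-bead capture and RT-PCR. Fitness is the logarithm of genotype enrichment relative to wild-type enrichment, based on Illumina sequencing of inputs and outputs and inverse-variance-weighted replicate averages. A base-2 logarithm is used, and genotypes were kept only with ≥10 input reads and ≥1 read per output.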

Row | Variant | polymerase ribozyme fitness (log ratio)
1 | C51U C87A G141U | ≤ -4.2
2 | A52U G84A G117C | -0.726
3 | A52C C87A | ≤ -4.2
4 | G50A G74C C87A U144C U151C | ≤ -4.2
5 | C51G G71A A122G | ≤ -4.2
6 | A52G U55A U90G C96U C103A C131G | ≤ -4.2
7 | A52G C54U C93A | -1.98
8 | A52G U53A | -0.907
9 | C51A U55G G88C C95A A119C | ≤ -4.2
10 | A52G U82G | 0.0484
11 | G50A U56A C57A C114G G133A | -3.53
12 | G50U U130A | -2.51
13 | G50U C132U | -0.763
14 | A52C U145G | -1.17
15 | A52C C95A C132G G141A A150G | ≤ -4.2
16 | A52U U53A C96U A119C | -2.05
17 | A52C A66C C69A C87G G133U | ≤ -4.2
18 | A52G U53A G83U | -2.28
19 | C51U C57G G58C C69A A98U C105G C116U A150U | ≤ -4.2
20 | G50U G62U U101C | -1
21 | G50U G83A U146C A147C | -2.91
22 | G50C C51U C54G C87U | ≤ -4.2
23 | C51G U53C U77C C95A | ≤ -4.2
24 | C51U G67A U77G C116G G126A C129A | ≤ -4.2

Row | Variant | polymerase ribozyme fitness (log ratio)
25 | C51A U101C C123A | -2.09
26 | A52U G58U U90C C118U G126C A138C | ≤ -4.2
27 | A52C A73U C85A C103A | ≤ -4.2
28 | A52G C93U U101C C105U | -2.43
29 | A52G G58A A66U U77G G94A C99G A107G | ≤ -4.2
30 | C51G | -1.58
31 | C51A | -0.687
32 | C51U | -0.394
33 | U53A A110G | -3.7
34 | G50C C57U U82G A121G G143C | ≤ -4.2
35 | A52G G92A A113U | -3.81
36 | A52G C85U U104G | -0.901
37 | G50C C75G C85A C132U | ≤ -4.2
38 | C51A C57A C95A G126A A147G | ≤ -4.2
39 | A52G G58C | 0.885
40 | A52C U78A C96A U144G | ≤ -4.2
41 | A52G G143C | -3.77
42 | G50A U55G G67C G80U C85G C105U A138U | ≤ -4.2
43 | U53A A91G | -3.09
44 | C51U A60U | -0.791
45 | G50U A91G C103G | ≤ -4.2
46 | C51G A66U G67A C118U | ≤ -4.2
47 | A52C U55A | -1.69
48 | G50A G74U G83A C85G G126U C149A | ≤ -4.2

Row | Variant | polymerase ribozyme fitness (log ratio)
49 | C51U G59C | 0.723
50 | G50U A52G C99G | -2.55
51 | A52G U77G G88C | ≤ -4.2
52 | A52C G84U C125U | -2.64
53 | A52G G74A A137U | ≤ -4.2
54 | A52U U53A U101G | -2.73
55 | G50U U144A | -0.478
56 | A52C U61A G88U C96U G136U | ≤ -4.2
57 | C51A C76A G86A | ≤ -4.2
58 | A52G G58A C72A G83U C96U | ≤ -4.2
59 | A52C C87U A91U C116U G128U | ≤ -4.2
60 | C51G A52U C63A A138U | ≤ -4.2
61 | C51A C54U C85U | -1.93
62 | G50U C57U | 1
63 | C51A A60G G124U | -1.75
64 | A52C G59U | -0.875
65 | G50C A98U | -2.38
66 | G50A G92C | -3.26
67 | C51U C85A G143C | -2.7
68 | A52U U82C G92U C116G A121U | -3.06
69 | A52U U82G | -1.46
70 | A52G U55C C105G U109A | -1.97
71 | C51G U90G | ≤ -4.2
72 | U53A A91C U101C | ≤ -4.2

Row | Variant | polymerase ribozyme fitness (log ratio)
73 | A52G C54U G58C G86A A89U | -3.29
74 | G50C U56A C57G A66G C95A C99U A113G G140A | -4.04
75 | A52U G84U | -2.48
76 | A52C U102G A147U | -3.59
77 | A52U C93A U109C U111G G140C G152A | ≤ -4.2
78 | C51A G84A | -1.26
79 | C51A G84C | -2.99
80 | G50C U53A C57G G70A G100C A120G | ≤ -4.2
81 | C51U G59A C95A C125G | -1.53
82 | G50C C85A U144G | ≤ -4.2
83 | A52U A107C | ≤ -4.2
84 | A52C G83U U145A | -1.8
85 | A52C C75U G88C C96U C105G G136U | ≤ -4.2
86 | U53A A64G C103G G124A | ≤ -4.2
87 | G50U A64G | ≤ -4.2
88 | C51U G70C C93G | ≤ -4.2
89 | A52G G84U C96U U139C U144C | ≤ -4.2
90 | A52C C87A C93U A98U G128U U148G | ≤ -4.2
91 | C51A U55A G94A C125A | -3.04
92 | G50U G83U G128C | -3.62
93 | G50A U53A G58C C79U A121G U134A U139G | ≤ -4.2
94 | A52C C87A G88U U135C | ≤ -4.2
95 | A52G C131A | -1.46
96 | A52G C69G G71C | -2.11

Row | Variant | polymerase ribozyme fitness (log ratio)
97 | A52G U56A A64C G92U | ≤ -4.2
98 | G50C G86U | -3.89
99 | G50C G86C | ≤ -4.2
100 | G50C G86A U102A G143U | ≤ -4.2
101 | U53A A122G | -0.748
102 | G50C G74A U77G C93G U135A U139A | ≤ -4.2
103 | G50A G94A C116G | -1.53
104 | C51U C118U | -0.957
105 | G50C A60C A98U | -3.01
106 | A52U G86C A91C U139C | ≤ -4.2
107 | A52U C105U | -1.7
108 | A52C C76U U101G | -4.01
109 | A52C G58U C75A C93A | ≤ -4.2
110 | C51G G94A | -1.79
111 | A52G G74A C87U C131U A142G | -3.99
112 | A52C A119U G141C | -2.95
113 | G50U G81A C93G | -3.96
114 | C51G A60G A73G C123G | -3.71
115 | A52C C93U | -2.33
116 | G50U G74A C93U A106C U148C | ≤ -4.2
117 | G50A G94U A121C | -2.21
118 | C51U C96A A121C U134A | -3.19
119 | A52U G59A U82G U145A U146C | -0.208
120 | A52C G92U | -1.12

Row | Variant | polymerase ribozyme fitness (log ratio)
121 | A52U C63U C85U C116G | -0.741
122 | G50A U56A G62C C63A C96G | ≤ -4.2
123 | G50A G141A | -0.962
124 | A52G G83A C118U A150G | -2.35
125 | C51A U55A C95A A110U G128C | ≤ -4.2
126 | A52G A119G | -0.813
127 | A52U U148C | ≤ -4.2
128 | U53A A73U C85U G124U U134C U135C | ≤ -4.2
129 | G50C G126A | -2.28
130 | A52G U53A C85A U111G | ≤ -4.2
131 | A52C C57U G80C A98U | -2.02
132 | C51U G58U A91U C96U G100C A138C | ≤ -4.2
133 | G50U C87U A115U U144A | -3.8
134 | G50U G84C C85G A106G C116U G152A | ≤ -4.2
135 | A52G C85A A89G | -3.57
136 | A52C A66G G71U C125U | ≤ -4.2
137 | G50U C76A G126U U148G | ≤ -4.2
138 | C51U U56A A91G | -3.44
139 | A52G C96G | -2.13
140 | C51U U127A A142G | -4.07
141 | A52C U53A C85U A107U A119C C125U | ≤ -4.2
142 | A52G C96G C131U | -0.425
143 | C51U U55A C96A | -1.8
144 | A52C C63U C93A A107U C125U U146A | ≤ -4.2

Row | Variant | polymerase ribozyme fitness (log ratio)
145 | C51A G65A G81U C96G A106U G136U | ≤ -4.2
146 | G50C A52C C79A C116G C125G C132G | ≤ -4.2
147 | A52C U55A C131G | ≤ -4.2
148 | A52C U148G | ≤ -4.2
149 | C51A A98U C125G | -0.926
150 | G50C A89G A107C C123G | ≤ -4.2
151 | G50C G65C G68A G86U A147G | ≤ -4.2
152 | G50A U53A | -1.59
153 | A52G C57G C76U G92U U148A | -4.19
154 | C51U A52C | -1.33
155 | C51U G58C A73G G81A C116U | -0.931
156 | C51A C99U | -1.63
157 | A52U G59C U101G A122U U144C | -2.67
158 | C51A G92U U109C | ≤ -4.2
159 | G50C A66C C79G C93U C95U U139C A147U | ≤ -4.2
160 | A52G C95A C99A | -1.54
161 | C51U C87A A91U U144G | ≤ -4.2
162 | C51U A98U | -0.337
163 | C51U A89U G92C C129U | -2.18
164 | A52C U56A G86A U90A A107C | ≤ -4.2
165 | A52U C57A C63U G94U A150G | ≤ -4.2
166 | A52C G94C | -2.26
167 | G50C C57G C118G | -3.68

Reference: the RNAGym collection of RNA variant scans (doi:10.1073/pnas.2313332121)
